The values below come from patent publication US20110318308A1, “LIPOCALIN-TYPE PROSTAGLANDIN D2 SYNTHASE AS A BIOMARKER FOR LUNG CANCER PROGRESSION AND PROGNOSIS” (WINTHROP-UNIVERSITY HOSPITAL, priority 2010, published 2011).

Numbering of substitutions follows the chain as printed. “Also recorded” adds a separate entry of the source.

The test system of series [1] is A549 cells. The settings on record: cited from earlier work.
Series [2] concerns A549 cells. Description: MTS cell proliferation assay, A549 cells with exogenously added L-PGDS. The series is classed as cell-based, human. The settings on record: for A549 hyperproliferation: exogenously added L-PGDS, qualitative statement. The method, then:
(§1) The effect of exogenously added L-PGDS on lung cell growth in culture was determined by MTS proliferation assay (Promega, Madison, Wis.). […] MLE cell proliferation was unaffected at L-PGDS concentrations up to […] but ceased at a concentration of 25 mg/l and above, as shown in FIG. 6.
(§2) Cell proliferation was measured with the use of a CellTiter 96 AQeous Non-Radioactive Cell Proliferation Assay (Promega, Madison, Wis.). Briefly, cells were plated in 96-well plates at a density of 500 cells/well in 200 μl of medium with 5% FBS. The cells were incubated at 37° C. in a humidified 5% CO2 atmosphere for the indicated time, after which 20 μl of combined MTS/PMS solution (Promega) was added per well. After a 2 h incubation at 37° C., absorbance at 490 nm was measured using an enzyme-linked immunosorbent assay (ELISA) plate reader. Data represent the average absorbance of three experiments each performed in triplicate.
The effect of exogenously added L-PGDS on A549 proliferation was observed.

Series [3] has as its system mouse lung epithelial (MLE) cells. Briefly: MTS cell proliferation assay, control mouse lung epithelial (MLE) cells. The series is classed as cell-based. The following applies: 18 h incubation. The method, then: as §1, §2
For orientation: Tetrazolium dyes change colour on reduction, which living cells bring about.

In series [4] the test system is A549 cells. Briefly: PDGF-stimulated trans-well migration assay, A549 cells. The series is classed as cell-based, human. The settings on record: for decrease in PGDF stimulated A549 migration: 5 h, trans-well inserts; for PDGF-stimulated migration of A549 cells: exogenously added L-PGDS, qualitative statement. The method, then: Migration assays were performed using 24-well cell culture inserts with 8.0 μm polyethylene terephthalate cyclopore membranes (Falcon) as detailed in Lundberg M S, Curto K A, Bilato C, Monticone R E, Crow M T. Regulation of vascular smooth muscle migration by mitogen-activated protein kinase and calcium/calmodulin-dependent protein kinase II signaling pathways. J Mol Cell Cardiol 1998; 30:2377-89. The underside of the membrane was coated with 100 μl rat tail collagen type I (50 μg/ml) for 18-20 h, washed and air-dried before each experiment. Cells were trypsinized and re-suspended in RPMI. Then 2×10^4 cells/250 μl were loaded into the cell culture inserts. The inserts were then added to the wells of 24-well plates which were filled with PDGF-BB diluted in RPMI with 0.1% BSA, and where indicated, L-PGDS was also added to this medium below the inserts.
The chambers were then incubated at 37° C. for 5 h to allow for cell migration. Afterwards, cells were completely removed from the upper side of the membrane with a cotton swab and the remaining migrated cells fixed and stained with Diff-Quik® solution (Dade Behring, Newark, Del.). Results are reported as the mean+/−SEM of five different fields, from three experiments, counted at 200× magnification.
The effect of L-PGDS on A549 migration was examined using trans-well inserts. FIG. 7 illustrates a 42% decrease in PGDF stimulated A549 migration in the presence of […] L-PGDS and a 77% decrease in the presence of […] L-PGDS. […] Cells were cultured and loaded into collagen coated […] cell culture inserts in the absence or presence of L-PGDS (25 or 50 μg/ml) as described above. Actual fields at 200× magnification are presented.

In series [5] the test system is Lipocalin-type prostaglandin D2 synthase (EC=5.3.99.2). The settings on record: alanine substitution in human L-PGDS; Zhou et al., FASEB J. 2010; cited from earlier work.

For the molecule `CCCCC/C=C/C=C1/C(=O)C=C[C@@H]1C/C=C\CCCC(=O)O` [15d-PGD2, 15-deoxy-Delta12,14-prostaglandin J2], the “role in PGD2-induced apoptosis in A549 cells” value in the series with A549 cells [1] (PGD2 metabolites) is listed as “likely candidate for the principal apoptotic inducer”.
Turning to `CCCCC[C@H](O)/C=C/[C@H]1C(=O)C[C@H](O)[C@@H]1C/C=C\CCCC(=O)O` [PGD2, Prostaglandin D2], the “A549 cell death / apoptosis” value with A549 cells [1] (A549 cells treated with PGD2) is “induces A549 cell death through the intrinsic apoptotic pathway”. Moreover, the “involvement of DP or CRTH2/DP2 in PGD2-induced A549 cell death” value in the series with A549 cells [1] (DP and CRTH2/DP2 blocked with BWA868C and ramatroban) is on record as “does not appear to involve either DP or CRTH2/DP2”.

B1: L-PGDS: Lipocalin-type prostaglandin D2 synthase protein, exogenously added to cultured cells (protein, UniProt P41222 23-190, looked up)
Prostaglandin-H2 D-isomerase: APEAQVSVQPNFQQDKFLGRWFSAGLASNSSWLREKKAALSMCKSVVAPATDGGLNLTSTFLRKNQCETRTMLLQPAGSLGSYSYRSPHWGSTYSVSVVETDYDQYALLYSQGSKGPGEDFRMATLYSRTQTPRAELKEKFTAFCKAQGFTEDTIVFLPQTDKCMTEQ
With B1, the A549 cell proliferation result in the series on A549 cells [2] (L-PGDS 1-50 mg/l, 18 h incubation, MTS assay) was “marked inhibition”. For the same molecule, the “A549 hyper-proliferative growth (OD490nm)” value with A549 cells [2] (exogenously added L-PGDS 0, 10, 25, 50 μg/ml, proliferation determined after 2 h) was “dose responsive inhibition”. The A549 hyperproliferation result in the series on A549 cells [2] is reported as “suppresses”; in the series with A549 cells [2] (listed as LPGDS) it was “suppress”. Besides, the “L-PGDS concentration at which MLE cell proliferation ceased” value in series [3] was no less than 25 mg/L. In series [3], the “L-PGDS concentrations at which MLE cell proliferation was unaffected” value is given as “up to 10 mg/dl”. Further, the “decrease in PGDF stimulated A549 migration” value in the series on A549 cells [4] (25 μg/μl L-PGDS) is 42%; in the series on A549 cells [4] (50 μg/μl L-PGDS), 77%. The A549 migration inhibition result in the series with A549 cells [4] (100 μg/μl L-PGDS (data not shown)) was “no further increase in migration inhibition”. In addition, the entries for the “PDGF-stimulated migration of A549 cells” value in the series with A549 cells [4] and with A549 cells [4] (listed as LPGDS) were “suppresses; also recorded: inhibits” and “suppress”, respectively.

B2: 79 L→A: human L-PGDS with residue 79 L changed to A (protein, UniProt P41222 23-190, looked up, variant L79A)
Prostaglandin-H2 D-isomerase: B1 Prostaglandin-H2 D-isomerase with L57A
As to B2, in series [5], the “change of enzyme activity by sequence modification” value (from here on “change of enzyme activity”) is “Reduces enzyme activity over ten-fold”.

B3: 59 K→A: human L-PGDS with residue 59 K changed to A (protein, UniProt P41222 23-190, looked up, variant K59A)
Prostaglandin-H2 D-isomerase: B1 Prostaglandin-H2 D-isomerase with K37A
In the case of B3, in series [5], the “change of enzyme activity” value is on record as “Increases enzyme activity about two-fold”.

B4: 83 F→A: human L-PGDS with residue 83 F changed to A (protein, UniProt P41222 23-190, looked up, variant F83A)
Prostaglandin-H2 D-isomerase: B1 Prostaglandin-H2 D-isomerase with F61A
B4: the “change of enzyme activity” value in series [5] was “Reduces enzyme activity about five-fold”.

B5: 64 M→A: human L-PGDS with residue 64 M changed to A (protein, UniProt P41222 23-190, looked up, variant M64A)
Prostaglandin-H2 D-isomerase: B1 Prostaglandin-H2 D-isomerase with M42A
Turning to B5, in series [5], the “change of enzyme activity” value is “Reduces enzyme activity almost ten-fold”.

B6: 149 Y→A: human L-PGDS with residue 149 Y changed to A (protein, UniProt P41222 23-190, looked up, variant Y149A)
Prostaglandin-H2 D-isomerase: B1 Prostaglandin-H2 D-isomerase with Y127A
With B6, the “change of enzyme activity” value in series [5] is “Increases enzyme activity about two-fold”.

B7: 131 L→A: human L-PGDS with residue 131 L changed to A (protein, UniProt P41222 23-190, looked up, variant L131A)
Prostaglandin-H2 D-isomerase: B1 Prostaglandin-H2 D-isomerase with L109A
As for B7, in series [5], the “change of enzyme activity” value is “Reduces enzyme activity almost ten-fold”.
